Test results as given in the supplement of paper PMC10567573.

B1: CCND2 (parent)
chain: YFKCVQKDIQPYMRRMVATWMLEV

Variants of: B1
Test: protein stability index of a GFP-peptide fusion (GPS, HEK-293T) (PSI 1-6); higher = more stable
Conditions: c terminus: a fixed tail appended
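Further: lentivirally expressed fusions sorted by FACS into six bins by GFP to DsRed ratio, PSI derived from sequencing read proportions per bin multiplied by bin number.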

Row | Variant | protein stability index
1 | YFKCVQKDITPYMRRMVATWMLEV [Q10T] | 2.71
2 | YFKCVQKDIMPYMRRMVATWMLEV [Q10M] | 2.06
3 | YFKCVQKDINPYMRRMVATWMLEV [Q10N] | 3.3
4 | YFKCVQKDIYPYMRRMVATWMLEV [Q10Y] | 3.78
5 | YFKCVQKDISPYMRRMVATWMLEV [Q10S] | 3.22
6 | YFKCVQKDIIPYMRRMVATWMLEV [Q10I] | 3.17
7 | YFKCVQKDICPYMRRMVATWMLEV [Q10C] | 3.12
8 | YFKCVQKDIPPYMRRMVATWMLEV [Q10P] | 3.81
9 | YFKCVQKDIFPYMRRMVATWMLEV [Q10F] | 1.99
10 | YFKCVQKDIRPYMRRMVATWMLEV [Q10R] | 2.02
11 | YFKCVQKDIGPYMRRMVATWMLEV [Q10G] | 2.42
12 | YFKCVQKDIHPYMRRMVATWMLEV [Q10H] | 2.84
13 | YFKCVQKDIAPYMRRMVATWMLEV [Q10A] | 3.8
14 | YFKCVQKDIDPYMRRMVATWMLEV [Q10D] | 2.77
15 | YFKCVQKDIEPYMRRMVATWMLEV [Q10E] | 2.32
16 | YFKCVQKDIWPYMRRMVATWMLEV [Q10W] | 3.11
17 | YFKCVQKDIKPYMRRMVATWMLEV [Q10K] | 3.06
18 | YFKCVQKDIVPYMRRMVATWMLEV [Q10V] | 2.5
19 | YFKCVQKDILPYMRRMVATWMLEV [Q10L] | 2.64
20 | YFKCVQKDIQPYMRLMVATWMLEV [R15L] | 2.33
21 | YFKCVQKDIQPYMRKMVATWMLEV [R15K] | 2.36
22 | YFKCVQKDIQPYMRWMVATWMLEV [R15W] | 3.97
23 | YFKCVQKDIQPYMRSMVATWMLEV [R15S] | 2.55
24 | YFKCVQKDIQPYMRFMVATWMLEV [R15F] | 4.08

Row | Variant | protein stability index
25 | YFKCVQKDIQPYMRHMVATWMLEV [R15H] | 2.75
26 | YFKCVQKDIQPYMRIMVATWMLEV [R15I] | 2.75
27 | YFKCVQKDIQPYMRDMVATWMLEV [R15D] | 3.42
28 | YFKCVQKDIQPYMRYMVATWMLEV [R15Y] | 2.81
29 | YFKCVQKDIQPYMRCMVATWMLEV [R15C] | 3.12
30 | YFKCVQKDIQPYMRVMVATWMLEV [R15V] | 3.01
31 | YFKCVQKDIQPYMRGMVATWMLEV [R15G] | 2.35
32 | YFKCVQKDIQPYMREMVATWMLEV [R15E] | 3.42
33 | YFKCVQKDIQPYMRAMVATWMLEV [R15A] | 1.77
34 | YFKCVQKDIQPYMRNMVATWMLEV [R15N] | 3.95
35 | YFKCVQKDIQPYMRPMVATWMLEV [R15P] | 3.69
36 | YFKCVQKDIQPYRRRMVATWMLEV [M13R] | 2.42
37 | YFKCVQKDIQPYQRRMVATWMLEV [M13Q] | 2.65
38 | YFKCVQKDIQPYYRRMVATWMLEV [M13Y] | 3.66
39 | YFKCVQKDIQPYKRRMVATWMLEV [M13K] | 3.64
40 | YFKCVQKDIQPYARRMVATWMLEV [M13A] | 3.23
41 | YFKCVQKDIQPYHRRMVATWMLEV [M13H] | 2.92
42 | YFKCVQKDIQPYDRRMVATWMLEV [M13D] | 2.8
43 | YFKCVQKDIQPYGRRMVATWMLEV [M13G] | 2.58
44 | YFKCVQKDIQPYCRRMVATWMLEV [M13C] | 2.43
45 | YFKCVQKDIQPYVRRMVATWMLEV [M13V] | 1.66
46 | YFKCVQKDIQPYERRMVATWMLEV [M13E] | 2.88
47 | YFKCVQKDIQPYTRRMVATWMLEV [M13T] | 2.96
48 | YFKCVQKDIQPYFRRMVATWMLEV [M13F] | 3.07

Row | Variant | protein stability index
49 | YFKCVQKDIQPYIRRMVATWMLEV [M13I] | 3.3
50 | YFKCVQKDIQPYMQRMVATWMLEV [R14Q] | 1.73
51 | YFKCVQKDIQPYMVRMVATWMLEV [R14V] | 2.55
52 | YFKCVQKDIQPYMSRMVATWMLEV [R14S] | 3.39
53 | YFKCVQKDIQPYMPRMVATWMLEV [R14P] | 3.71
54 | YFKCVQKDIQPYMYRMVATWMLEV [R14Y] | 3.2
55 | YFKCVQKDIQPYMCRMVATWMLEV [R14C] | 2.77
56 | YFKCVQKDIQPYMNRMVATWMLEV [R14N] | 2.06
57 | YFKCVQKDIQPYMGRMVATWMLEV [R14G] | 2.28
58 | YFKCVQKDIQPYMTRMVATWMLEV [R14T] | 4.32
59 | YFKCVQKDIQPYMLRMVATWMLEV [R14L] | 4.22
60 | YFKCVQKDIQPYMARMVATWMLEV [R14A] | 3.47
61 | YFKCVQKDIQPYMKRMVATWMLEV [R14K] | 1.44
62 | YFKCVQKDIQPYMIRMVATWMLEV [R14I] | 2.63
63 | YFKCVQKDIQPYMERMVATWMLEV [R14E] | 2.24
64 | YFKCVQKDIQPYMDRMVATWMLEV [R14D] | 2.16
65 | YFKCVQKDIQPYMWRMVATWMLEV [R14W] | 1.74
66 | YFKCVQKDIQPYMRRMVAQWMLEV [T19Q] | 1.75
67 | YFKCVQKDIQPYMRRMVAWWMLEV [T19W] | 2.88
68 | YFKCVQKDIQPYMRRMVAKWMLEV [T19K] | 3
69 | YFKCVQKDIQPYMRRMVAMWMLEV [T19M] | 1.84
70 | YFKCVQKDIQPYMRRMVARWMLEV [T19R] | 1.58
71 | YFKCVQKDIQPYMRRMVAGWMLEV [T19G] | 2.5
72 | YFKCVQKDIQPYMRRMVAEWMLEV [T19E] | 1.44

Row | Variant | protein stability index
73 | YFKCVQKDIQPYMRRMVAIWMLEV [T19I] | 2.75
74 | YFKCVQKDIQPYMRRMVANWMLEV [T19N] | 3.9
75 | YFKCVQKDIQPYMRRMVAYWMLEV [T19Y] | 3.88
76 | YFKCVQKDIQPYMRRMVAFWMLEV [T19F] | 2.85
77 | YFKCVQKDIQPYMRRMVAVWMLEV [T19V] | 2.61
78 | YFKCVQKDIQPYMRRMVAPWMLEV [T19P] | 1.41
79 | YFKCVQKDIQPYMRRMVASWMLEV [T19S] | 2.83
80 | YFKCVQKDIQPYMRRMVADWMLEV [T19D] | 1.97
81 | YFKCVQKDIQPYMRRMVAAWMLEV [T19A] | 3.42
82 | YFKCVQKDIQPYMRRMVAHWMLEV [T19H] | 3.25
83 | YFKCVQKDIQPYMRRMPATWMLEV [V17P] | 2.44
84 | YFKCVQKDIQPYMRRMKATWMLEV [V17K] | 2.5
85 | YFKCVQKDIQPYMRRMHATWMLEV [V17H] | 3.14
86 | YFKCVQKDIQPYMRRMQATWMLEV [V17Q] | 2.63
87 | YFKCVQKDIQPYMRRMIATWMLEV [V17I] | 2.65
88 | YFKCVQKDIQPYMRRMSATWMLEV [V17S] | 1.77
89 | YFKCVQKDIQPYMRRMTATWMLEV [V17T] | 3.15
90 | YFKCVQKDIQPYMRRMNATWMLEV [V17N] | 2.15
91 | YFKCVQKDIQPYMRRMMATWMLEV [V17M] | 2
92 | YFKCVQKDIQPYMRRMDATWMLEV [V17D] | 3.18
93 | YFKCVQKDIQPYMRRMWATWMLEV [V17W] | 4.01
94 | YFKCVQKDIQPYMRRMRATWMLEV [V17R] | 3.03
